T1: human B7H3 on the cell surface (A498, CT26/hB7H3, U87, Detroit562 cells) (human, UniProt Q5ZPR3 29-534)
T1 sequence: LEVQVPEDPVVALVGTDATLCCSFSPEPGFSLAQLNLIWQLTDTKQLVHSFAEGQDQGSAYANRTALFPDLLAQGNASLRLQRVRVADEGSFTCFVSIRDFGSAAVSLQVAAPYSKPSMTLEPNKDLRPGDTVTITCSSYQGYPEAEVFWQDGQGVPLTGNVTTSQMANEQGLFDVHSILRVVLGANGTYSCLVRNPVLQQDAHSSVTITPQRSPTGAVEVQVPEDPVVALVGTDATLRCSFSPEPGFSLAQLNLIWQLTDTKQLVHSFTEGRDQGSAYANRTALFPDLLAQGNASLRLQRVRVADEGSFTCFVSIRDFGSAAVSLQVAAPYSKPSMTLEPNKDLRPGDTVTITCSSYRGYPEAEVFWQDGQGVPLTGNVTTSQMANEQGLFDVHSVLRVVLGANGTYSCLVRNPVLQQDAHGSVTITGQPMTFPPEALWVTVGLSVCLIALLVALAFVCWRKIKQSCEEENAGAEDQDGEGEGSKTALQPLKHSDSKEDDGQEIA


What was measured:
[1] = molecular target: T1, human B7H3 on the cell surface (A498, …); assay: cell-based or functional assay
[2] = molecular target: T1, human B7H3 on the cell surface (A498, …); assay: FACS on A498 cells expressing human B7H3, APC anti-human IgG Fc detection, geometric mean fluorescence
Method: (§1) The ability of bispecific antibodies to bind to cell surface antigens was detected by FACS method.
(§2) FACS buffer (98% PBS, 2% FBS) was added into a 96-well U-shaped bottom plate (corning, 3795) to resuspend the cells, the serially diluted antibodies were added, incubated at 4° C. for 1 hour, and the plate was washed with FACS buffer twice. Then APC anti-human IgG Fc Antibody (biolegend, Cat #409306, dilution at 1:50) was added into each well, incubated at 4° C. for 30 minutes, washed twice, the cells were resuspended in FACS buffer, and finally the fluorescence signal values were read by FACS CantoII (BD).

[3] = molecular target: human CD3 on the cell surface (Jurkat recombinant cells; T cells of PBMC) (human, UniProt P07766 23-207; P04234 22-171); assay: FACS on Jurkat recombinant cells expressing CD3, APC anti-human IgG Fc detection, geometric mean fluorescence
Method: as §1, §2

[4] = molecular target: T1, human B7H3 on the cell surface (A498, …); assay: FACS on CT26/hB7H3 cells over-expressing human B7H3, APC anti-human IgG Fc detection, geometric mean fluorescence
Method: as §1, §2

Chain of human CD3 on the cell surface (Jurkat recombinant cells; T cells of PBMC) (P07766 23-207, chain 1 of 2): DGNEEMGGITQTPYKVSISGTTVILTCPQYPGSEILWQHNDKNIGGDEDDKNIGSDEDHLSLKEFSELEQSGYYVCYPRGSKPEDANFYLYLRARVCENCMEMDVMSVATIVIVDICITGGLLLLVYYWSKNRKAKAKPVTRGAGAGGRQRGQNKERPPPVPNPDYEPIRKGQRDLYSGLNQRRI
Chain of human CD3 on the cell surface (Jurkat recombinant cells; T cells of PBMC) (P04234 22-171, chain 2 of 2): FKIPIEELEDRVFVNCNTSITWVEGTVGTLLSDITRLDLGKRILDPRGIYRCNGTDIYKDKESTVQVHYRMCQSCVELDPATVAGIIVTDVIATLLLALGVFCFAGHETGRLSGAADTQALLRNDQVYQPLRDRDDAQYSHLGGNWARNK

EC50 (read off the curve) [3] [nM] | EC50 (read off the curve) [2] [nM] | EC50 (read off the curve) [4] [nM] | Binder | Emax (%), PBMC-mediated killing of A498 cells (B7H3 high) [1] [%] | Emax (%), PBMC-mediated killing of Detroit562 cells (B7H3 low) [1] [%] | Emax (%), PBMC-mediated killing of U87 cells (B7H3 intermediate) [1] [%] | IC50 (nM), PBMC-mediated killing of A498 cells (B7H3 high) [1] [nM] | IC50 (nM), PBMC-mediated killing of Detroit562 cells (B7H3 low) [1] [nM] | IC50 (nM), PBMC-mediated killing of U87 cells (B7H3 intermediate) [1] [nM] | binding result [2] | binding result [3]
~70 | – | – | NC1 (negative control bispecific antibody; B7H3 binding domain replaced with a non-related antibody, CD3 binding domain retained) (bispecific antibody, Control arm said to be an anti-fluorescein antibody; CD3 scFv with HRH-3) chain 1: not shown chain 2: DIQMTQSPSSVSASVGDRVTITCRASQDIANYLSWYQQKPGKSPKLLIYGTSNLEVGVPSRFSGSRSGTDFTLTISSLQPEDFATYYCLQDKEFPRTFGGGTKVEIKGGGGSGGGGSGGGGSEVQLVESGGGLVQPGGSLRLSCAASGFTFSHYYMAWVRQAPGKGLEWVTSISYEGDITYYGDSVKGRFTISRDNSKNTLYLQMNSLRAEDTATYYCASQTLRESFDYWGQGTLVTVSSGGGDKTHTCPPCPAPEAAGGPSVFLFPPKPKDTLMISRTPEVTCVVVDVSHEDPEVKFNWYVDGVEVHNAKTKPREEQYNSTYRVVSVLTVLHQDWLNGKEYKCKVSNKALPAPIEKTISKAKGQPREPQVCTLPPSREEMTKNQVSLSCAVKGFYPSDIAVEWESNGQPENNYKTTPPVLDSDGSFFLVSKLTVDKSRWQQGNVFSCSVMHEALHNHYTQKSLSLSPGK | 20.9 | 0.95 | 3.8 | > 300 | > 300 | > 300 | no binding (tested: about 5000 nM (log 3.7 on the axis)) | –
– | ~30 | ~4 | NC2 (negative control bispecific antibody; B7H3 binding domain retained, CD3 binding domain replaced with a non-related antibody) (bispecific antibody, Control arm said to be anti-fluorescein) chain 1: not shown chain 2: QTVVTQEPSFSVSPGGTVTLTCGLSSGSVSTSHYPSWYQQTPGQAPRMLIYNTNTRSSGVPDRFSGSILGNKAALTITGAQADDESDYYCAIHVDRDIWVFGGGTKLTVLGGGGSGGGGSGGGGSQVQLVQSGGGVVQPGTSLRLSCAASGFIFSSSAMHWVRQAPGKGLEWVAVISYDGSNKYYVDSVKGRFTISRDNSKNTLYLQMNSLRAEDTAVYYCARSARLYASFDYWGQGALVTVSSGGGDKTHTCPPCPAPEAAGGPSVFLFPPKPKDTLMISRTPEVTCVVVDVSHEDPEVKFNWYVDGVEVHNAKTKPREEQYNSTYRVVSVLTVLHQDWLNGKEYKCKVSNKALPAPIEKTISKAKGQPREPQVCTLPPSREEMTKNQVSLSCAVKGFYPSDIAVEWESNGQPENNYKTTPPVLDSDGSFFLVSKLTVDKSRWQQGNVFSCSVMHEALHNHYTQKSLSLSPGK | – | – | – | – | – | – | – | no binding (tested: about 8000 nM (log 3.9 on the axis))
